The supplement of paper PMC10724198
± gives the standard deviation of the averaged measurements.

Key:
[1] = tested on: Saccharomyces cerevisiae; assay: protein stability index of tFT-peptide fusion (C-terminal peptide) (PSI (0-1 scale)); higher = more stable (slower turnover)
Protocol: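 MPS profiling in S. cerevisiae of the tFT-X12 degron library: putative degron peptides plus stable controls, 12 aa, fused to the C-terminus of a sfGFP-mCherry timer. Cells are FACS-sorted into 8 mCherry/sfGFP bins and deep-sequenced. PSI runs from 0 (unstable) to 1 (stable). Backgrounds are wild type, das1Δ and doa10Δ at 30 °C, and wild type, das1Δ, cdc34-1 and cdc53-1 at 37 °C; 2-3 technical replicates each.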

[2] = tested on: Saccharomyces cerevisiae; assay: as above; conditions: genetic background: wild type; temperature: 30 C
[3] = genetic background: cdc34-1, temperature: 37 C
[4] = genetic background: cdc53-1, temperature: 37 C
[5] = genetic background: das1 deletion, temperature: 30 C
[6] = genetic background: das1 deletion, temperature: 37 C
[7] = genetic background: doa10 deletion, temperature: 30 C
[8] = genetic background: wild type, temperature: 30 C
[9] = genetic background: wild type, temperature: 37 C
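Note: PSI is a weighted mean of sequencing reads over stability bins, variants kept only with over 10 reads, mCherry proximal and sfGFP distal, peptide attached via GGGS linker.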

| Sequence | protein stability index [1, 3] | protein stability index [1, 4] | protein stability index [1, 5] | protein stability index [1, 6] | protein stability index [1, 7] | protein stability index [1, 8] | protein stability index [1, 9] | protein stability index [2] |
| --- | --- | --- | --- | --- | --- | --- | --- | --- |
| CREFLQSMLFYC | 0.688 ± 0.043 | 0.744 ± 0.017 | 0.645 ± 0.044 | 0.751 ± 0.018 | 0.241 ± 0.016 | 0.281 ± 0.021 | 0.56 ± 0.02 | 0.373 ± 0.1 |
| RGGPPPCPLLAA | 0.68 ± 0.036 | 0.698 ± 0.032 | 0.585 ± 0.012 | 0.688 ± 0.0092 | 0.571 ± 0.035 | 0.584 ± 0.011 | 0.664 ± 0.013 | 0.51 ± 0.034 |
| FSPSPVFVTCRV | 0.247 ± 0.027 | 0.255 ± 0.013 | 0.208 ± 0.047 | 0.343 ± 0.0046 | 0.182 ± 0.0066 | 0.218 ± 0.031 | 0.296 ± 0.011 | 0.356 ± 0.01 |
| FFGVLFRVSLFF | 0.12 ± 0.035 | 0.22 ± 0.011 | 0.191 ± 0.022 | 0.3075 ± 0.0027 | 0.175 ± 0.0079 | 0.173 ± 0.017 | 0.262 ± 0.0057 | 0.266 ± 0.035 |
| GFVLMLLVRFEL | 0.299 ± 0.037 | 0.416 ± 0.0054 | 0.309 ± 0.031 | 0.474 ± 0.015 | 0.328 ± 0.011 | 0.294 ± 0.046 | 0.465 ± 0.035 | 0.419 ± 0.034 |
| LPPSPPCQSPAL | 0.667 ± 0.021 | 0.716 ± 0.012 | 0.672 ± 0.015 | 0.728 ± 0.012 | 0.681 ± 0.03 | 0.667 ± 0.019 | 0.685 ± 0.013 | 0.743 ± 0.018 |
| YAFLWCVFYLSF | 0.228 ± 0.0071 | 0.235 ± 0.03 | 0.222 ± 0.028 | 0.337 ± 0.01 | 0.216 ± 0.0098 | 0.196 ± 0.017 | 0.305 ± 0.0082 | 0.289 ± 0.021 |
| FSFCFCFPLSSL | 0.5603 ± 0.0013 | 0.683 ± 0.053 | 0.528 ± 0.018 | 0.6285 ± 0.0038 | 0.209 ± 0.011 | 0.248 ± 0.013 | 0.407 ± 0.015 | 0.301 ± 0.0084 |
| VCMVLCRWRGLG | 0.601 ± 0.028 | 0.704 ± 0.0075 | 0.6061 ± 0.0028 | 0.6993 ± 0.0046 | 0.219 ± 0.011 | 0.234 ± 0.038 | 0.443 ± 0.026 | 0.331 ± 0.01 |
| VVFLWRCRLLLG | 0.276 ± 0.015 | 0.346 ± 0.015 | 0.213 ± 0.034 | 0.416 ± 0.0042 | 0.0938 ± 0.011 | 0.115 ± 0.027 | 0.154 ± 0.0056 | 0.164 ± 0.019 |
| LFLVFIGLFFLT | 0.348 ± 0.011 | 0.429 ± 0.035 | 0.359 ± 0.061 | 0.46 ± 0.011 | 0.338 ± 0.011 | 0.327 ± 0.015 | 0.441 ± 0.01 | 0.413 ± 0.012 |
| CIIAVMISIVSF | 0.0342 ± 0.0065 | 0.0959 ± 0.012 | 0.0327 ± 0.018 | 0.14 ± 0.035 | 0.02686 ± 0.00016 | 0.0274 ± 0.0082 | 0.0917 ± 0.023 | 0.0807 ± 0.031 |
| SLVIRLNIRLIL | 0.462 ± 0.021 | 0.435 ± 0.0077 | 0.423 ± 0.03 | 0.414 ± 0.034 | 0.329 ± 0.0061 | 0.325 ± 0.018 | 0.361 ± 0.019 | 0.394 ± 0.011 |
| DRLRSGLSLLLA | 0.64 ± 0.014 | 0.6817 ± 0.0049 | 0.556 ± 0.018 | 0.669 ± 0.0078 | 0.365 ± 0.015 | 0.411 ± 0.02 | 0.583 ± 0.0065 | 0.4925 ± 0.0035 |
| CFGIFWLFARLK | 0.281 ± 0.07 | 0.32 ± 0.03 | 0.289 ± 0.022 | 0.422 ± 0.0073 | 0.343 ± 0.018 | 0.274 ± 0.035 | 0.389 ± 0.035 | 0.345 ± 0.059 |
| GACRVSSCVVVC | 0.504 ± 0.011 | 0.548 ± 0.024 | 0.37 ± 0.032 | 0.571 ± 0.0072 | 0.316 ± 0.006 | 0.358 ± 0.014 | 0.526 ± 0.0059 | 0.4477 ± 0.0044 |
| FIFCLSCGVWGG | 0.5052 ± 0.0007 | 0.583 ± 0.027 | 0.478 ± 0.039 | 0.593 ± 0.023 | 0.49 ± 0.026 | 0.466 ± 0.012 | 0.5582 ± 0.0053 | 0.414 ± 0.02 |
| FLAFLEPRVCCA | 0.23 ± 0.037 | 0.231 ± 0.036 | 0.246 ± 0.019 | 0.354 ± 0.0058 | 0.21 ± 0.0091 | 0.228 ± 0.031 | 0.33 ± 0.029 | 0.343 ± 0.013 |
| RIVLRPPFNSVA | 0.619 ± 0.015 | 0.727 ± 0.017 | 0.656 ± 0.035 | 0.7428 ± 0.0017 | 0.176 ± 0.0064 | 0.217 ± 0.018 | 0.48 ± 0.0059 | 0.367 ± 0.077 |
| FCCLVLDLEVSG | 0.4314 ± 0.0037 | 0.548 ± 0.019 | 0.36 ± 0.032 | 0.5627 ± 0.0037 | 0.331 ± 0.0069 | 0.372 ± 0.016 | 0.541 ± 0.0084 | 0.424 ± 0.0079 |

| Sequence | protein stability index [1, 3] | protein stability index [1, 4] | protein stability index [1, 5] | protein stability index [1, 6] | protein stability index [1, 7] | protein stability index [1, 8] | protein stability index [1, 9] | protein stability index [2] |
| --- | --- | --- | --- | --- | --- | --- | --- | --- |
| PAVRRLTGLMLM | 0.6812 ± 0.0047 | 0.7493 ± 0.0057 | 0.612 ± 0.014 | 0.737 ± 0.024 | 0.276 ± 0.011 | 0.321 ± 0.0051 | 0.566 ± 0.022 | 0.413 ± 0.011 |
| LQYSKALAVICG | 0.218 ± 0.034 | 0.264 ± 0.027 | 0.235 ± 0.041 | 0.367 ± 0.01 | 0.19 ± 0.017 | 0.221 ± 0.033 | 0.317 ± 0.023 | 0.374 ± 0.05 |
| ETVHVISLIAIG | 0.428 ± 0.021 | 0.5059 ± 0.0027 | 0.33 ± 0.047 | 0.527 ± 0.017 | 0.279 ± 0.014 | 0.33 ± 0.021 | 0.49577 ± 7e-05 | 0.47 ± 0.037 |
| AALFNYVVCFCA | 0.474 ± 0.059 | 0.537 ± 0.035 | 0.377 ± 0.025 | 0.512 ± 0.013 | 0.301 ± 0.0065 | 0.323 ± 0.015 | 0.436 ± 0.025 | 0.358 ± 0.0079 |
| RPRVAGLMTLVS | 0.698 ± 0.013 | 0.686 ± 0.052 | 0.543 ± 0.018 | 0.707 ± 0.025 | 0.459 ± 0.03 | 0.459 ± 0.032 | 0.672 ± 0.0094 | 0.5 ± 0.0055 |
| GFISKLIIKLAA | 0.542 ± 0.0055 | 0.566 ± 0.032 | 0.43 ± 0.025 | 0.5511 ± 0.0043 | 0.269 ± 0.0091 | 0.319 ± 0.016 | 0.462 ± 0.026 | 0.435 ± 0.0059 |
| RFIYYCVDVFFS | 0.0337 ± 0.01 | 0.147 ± 0.025 | 0.123 ± 0.049 | 0.215 ± 0.021 | 0.0847 ± 0.031 | 0.1 ± 0.034 | 0.19 ± 0.037 | 0.176 ± 0.033 |
| NTYKICVVSVTS | 0.449 ± 0.014 | 0.552 ± 0.021 | 0.355 ± 0.047 | 0.587 ± 0.0069 | 0.267 ± 0.019 | 0.299 ± 0.035 | 0.578 ± 0.018 | 0.413 ± 0.018 |
| ERWSPWIVVFTN | 0.464 ± 0.015 | 0.505 ± 0.012 | 0.421 ± 0.034 | 0.612 ± 0.024 | 0.173 ± 0.019 | 0.185 ± 0.022 | 0.278 ± 0.029 | 0.278 ± 0.029 |
| ISVRKTFLIVLC | 0.331 ± 0.031 | 0.351 ± 0.018 | 0.266 ± 0.047 | 0.486 ± 0.01 | 0.152 ± 0.015 | 0.156 ± 0.013 | 0.279 ± 0.025 | 0.232 ± 0.022 |
| PGHICVPVLGTA | 0.453 ± 0.021 | 0.467 ± 0.0061 | 0.348 ± 0.037 | 0.513 ± 0.0077 | 0.3072 ± 0.003 | 0.357 ± 0.027 | 0.517 ± 0.036 | 0.447 ± 0.027 |
| VLVRVIYLLVSG | 0.276 ± 0.007 | 0.373 ± 0.013 | 0.23 ± 0.038 | 0.469 ± 0.0053 | 0.178 ± 0.026 | 0.234 ± 0.029 | 0.404 ± 0.017 | 0.347 ± 0.02 |
| VIQKKKKNKITS | 0.617 ± 0.004 | 0.729 ± 0.014 | 0.65 ± 0.022 | 0.7265 ± 0.0018 | 0.197 ± 0.011 | 0.238 ± 0.013 | 0.408 ± 0.016 | 0.346 ± 0.033 |
| PTFSPSLPPPRS | 0.632 ± 0.03 | 0.715 ± 0.012 | 0.678 ± 0.027 | 0.703 ± 0.02 | 0.712 ± 0.027 | 0.694 ± 0.022 | 0.67608 ± 0.00018 | 0.3693 ± 0.0019 |
| RIRRVMHLYTNN | 0.475 ± 0.027 | 0.705 ± 0.071 | 0.641 ± 0.027 | 0.708 ± 0.024 | 0.0717 ± 0.0049 | 0.0844 ± 0.012 | 0.109 ± 0.044 | 0.121 ± 0.0048 |
| GYVVYRRYILIR | 0.0341 ± 0.0027 | 0.0546 ± 0.03 | 0.111 ± 0.017 | 0.131 ± 0.026 | 0.219 ± 0.0094 | 0.0783 ± 0.012 | 0.0969 ± 0.011 | 0.141 ± 0.0084 |
| TRSLLFANRCIV | 0.66 ± 0.047 | 0.706 ± 0.033 | 0.619 ± 0.017 | 0.737 ± 0.0079 | 0.269 ± 0.0075 | 0.304 ± 0.025 | 0.503 ± 0.009 | 0.396 ± 0.014 |
| GRVFSSFFLYIS | 0.051 ± 0.02 | 0.0556 ± 0.0033 | 0.112 ± 0.011 | 0.184 ± 0.011 | 0.14 ± 0.0057 | 0.0543 ± 0.017 | 0.0883 ± 0.017 | 0.0831 ± 0.0098 |
| LVDSRIVWLFVS | 0.325 ± 0.095 | 0.584 ± 0.034 | 0.439 ± 0.026 | 0.632 ± 0.024 | 0.0761 ± 0.016 | 0.0713 ± 0.017 | 0.0698 ± 0.021 | 0.0955 ± 0.039 |
